In article PMC12090739 one finds rate of gH/gL/gO-PDGFRα-dependent cell–cell fusion, as percent of parental gO1b (% of parental gO1b), rate of gB-mediated cell–cell fusion (split luciferase, live cells); ARPE19 target cells with PDGFRα against those without and inhibition of the rate of gH/gL/gO-PDGFRα-dependent cell–cell fusion (pair that is blocked: m1 and m2) data, which are given here for five substances.

Test [1] deals with PDGFRα-V242K (UniProt P16234).
Test [2] has as its target PDGFRα-V242K (UniProt P16234). The source holds these as a separate data set.
Test [3] has as its target HCMV gH/gL/gO complex (strain TR; gO allele gO1b) (human cytomegalovirus (HCMV) strain TR).

For “HCMV gH/gL/gO complex with gO allele gO1c”, in the test with PDGFRα-V242K [1], the rate of gH/gL/gO-PDGFRα-dependent cell–cell fusion, as percent of parental gO1b (% of parental gO1b) is 107. With “HCMV gH/gL/gO complex (strain TR; gO allele gO1b)”, the rate of gB-mediated cell–cell fusion (split luciferase, live cells); ARPE19 target cells with PDGFRα against those without in the test with PDGFRα-V242K [2] was above 100 fold. As for “HCMV gH/gL/gO complex with gO allele gO1a”, the rate of gH/gL/gO-PDGFRα-dependent cell–cell fusion, as percent of parental gO1b (% of parental gO1b) with PDGFRα-V242K [1] was determined as 83. As to “soluble PDGFRα-FC (from UniProt P16234 24-528) (Fc fusion)”, in test [3], the inhibition of the rate of gH/gL/gO-PDGFRα-dependent cell–cell fusion (pair that is blocked: m1 and m2) was 2.5 fold. As to “HCMV gH/gL/gO complex with gO allele gO2a”, the rate of gH/gL/gO-PDGFRα-dependent cell–cell fusion, as percent of parental gO1b (% of parental gO1b) in the test with PDGFRα-V242K [1] worked out at 112.
